Test results: US20240158515A1 (Regeneron, published 2024)

T1: cynomolgus FGFR3b expressed with a C-terminal myc-myc-hexahistidine tag (mfFGFR3b.mmH) (cynomolgus)
T1 construct: also called REGN3521; mf FGFR3b ecto (R357G)(E23-G377;R357G).mmH
T1 chain: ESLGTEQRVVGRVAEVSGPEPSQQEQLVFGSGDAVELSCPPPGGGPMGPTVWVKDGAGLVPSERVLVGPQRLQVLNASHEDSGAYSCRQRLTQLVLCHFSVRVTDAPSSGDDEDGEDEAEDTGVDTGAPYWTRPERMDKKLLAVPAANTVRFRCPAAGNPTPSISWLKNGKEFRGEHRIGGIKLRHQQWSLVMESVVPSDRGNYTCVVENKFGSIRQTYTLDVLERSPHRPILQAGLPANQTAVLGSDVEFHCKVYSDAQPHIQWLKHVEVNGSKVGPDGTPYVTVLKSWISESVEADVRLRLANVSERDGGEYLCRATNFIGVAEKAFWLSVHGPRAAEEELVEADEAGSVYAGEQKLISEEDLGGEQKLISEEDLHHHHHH

T2: murine FGFR3b expressed with a C-terminal myc-myc-hexahistidine tag (mFGFR3b.mmH) (murine)
T2 construct: also called REGN3215; monomeric murine FGFR3b
T2 chain: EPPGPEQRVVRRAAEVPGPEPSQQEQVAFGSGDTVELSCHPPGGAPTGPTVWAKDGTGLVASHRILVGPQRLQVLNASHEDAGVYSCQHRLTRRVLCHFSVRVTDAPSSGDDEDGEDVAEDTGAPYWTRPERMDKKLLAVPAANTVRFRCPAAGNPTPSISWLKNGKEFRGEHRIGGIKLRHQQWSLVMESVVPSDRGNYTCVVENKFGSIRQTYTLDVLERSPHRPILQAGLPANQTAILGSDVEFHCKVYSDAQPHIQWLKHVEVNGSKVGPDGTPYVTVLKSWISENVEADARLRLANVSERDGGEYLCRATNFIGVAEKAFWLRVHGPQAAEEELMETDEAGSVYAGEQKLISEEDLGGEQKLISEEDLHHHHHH

T3: human FGFR3b expressed with a C-terminal murine Fc tag (hFGFR3b.mFc) (human)
T3 construct: called dimeric; also called REGN3153; dimeric human FGFR3b
T3 chain: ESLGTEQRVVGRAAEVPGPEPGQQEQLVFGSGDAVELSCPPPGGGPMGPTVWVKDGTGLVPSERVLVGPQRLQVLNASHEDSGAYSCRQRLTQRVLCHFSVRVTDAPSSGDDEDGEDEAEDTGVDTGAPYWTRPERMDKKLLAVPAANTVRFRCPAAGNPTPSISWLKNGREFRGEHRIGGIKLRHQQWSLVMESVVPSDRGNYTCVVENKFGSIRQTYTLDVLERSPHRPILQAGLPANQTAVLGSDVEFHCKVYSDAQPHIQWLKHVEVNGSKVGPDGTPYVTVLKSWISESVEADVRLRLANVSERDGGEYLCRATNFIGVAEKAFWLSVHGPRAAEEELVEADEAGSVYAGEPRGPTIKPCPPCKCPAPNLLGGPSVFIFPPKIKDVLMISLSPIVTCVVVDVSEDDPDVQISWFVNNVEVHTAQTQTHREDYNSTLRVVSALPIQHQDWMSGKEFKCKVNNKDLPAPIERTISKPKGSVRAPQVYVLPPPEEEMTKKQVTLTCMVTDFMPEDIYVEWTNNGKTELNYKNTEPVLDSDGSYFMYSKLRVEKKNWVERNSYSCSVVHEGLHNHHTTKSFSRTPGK

T4: human FGFR3b expressed with a C-terminal myc-myc-hexahistidine tag (hFGFR3b.mmH) (human)
T4 construct: also called REGN3152; monomeric human FGFR3b
T4 chain: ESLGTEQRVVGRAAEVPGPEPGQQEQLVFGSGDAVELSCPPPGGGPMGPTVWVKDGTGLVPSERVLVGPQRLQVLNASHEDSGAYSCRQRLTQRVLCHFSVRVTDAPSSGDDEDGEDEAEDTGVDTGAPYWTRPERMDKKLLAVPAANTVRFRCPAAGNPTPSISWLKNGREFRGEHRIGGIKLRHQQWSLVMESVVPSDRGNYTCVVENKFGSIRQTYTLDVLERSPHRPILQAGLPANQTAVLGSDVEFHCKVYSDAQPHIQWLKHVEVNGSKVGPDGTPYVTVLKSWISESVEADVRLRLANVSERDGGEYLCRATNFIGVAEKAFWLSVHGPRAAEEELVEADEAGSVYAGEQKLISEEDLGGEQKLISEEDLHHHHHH


Key:
[1] = biological target: T1, cynomolgus FGFR3b expressed with a …; experiment: SPR Biacore, mAb captured on anti-hFc, 25C
Procedure: (§1) The CM5 Biacore sensor surface was derivatized by amine coupling with a monoclonal mouse anti-human Fc monoclonal antibody (REGN2567). […] Antibody-reagent association was monitored for 5 minutes while dissociation in HBS-EP running buffer was monitored for 10 minutes. At the end of each cycle, the anti-FGFR3 antibody capture surface was regenerated using a 10 sec injection of 20 mM phosphoric acid. All binding kinetics experiments were performed at 25° C.
(§2) The specific SPR-Biacore sensorgrams were obtained by a double referencing procedure. The double referencing was performed by first subtracting the signal of each injection over a reference surface (anti-hFc) from the signal over the experimental surface (anti-hFc-captured anti-FGFR3 antibodies) thereby removing contributions from refractive index changes. In addition, running buffer injections were performed to allow subtraction of the signal changes resulting from the dissociation of captured antibodies from the coupled anti-hFc surface. Kinetic association (kₐ) and dissociation (kd) rate constants were determined by fitting the real-time sensorgrams to a 1:1 binding model using Scrubber v2.0c curve fitting software.

[2] = biological target: T2, murine FGFR3b expressed with a …; experiment: SPR Biacore, mAb captured on anti-hFc, 25C
Procedure: as §1, §2

[3] = biological target: T3, human FGFR3b expressed with a …; experiment: SPR Biacore, mAb captured on anti-hFc, 25C
Procedure: as §1, §2

[4] = biological target: T4, human FGFR3b expressed with a …; experiment: SPR Biacore, mAb captured on anti-hFc, 25C
Procedure: as §1, §2

[5] = biological target: T3, human FGFR3b expressed with a …; experiment: competition ELISA: 4 nM hFGFR3b-mFc binding to plate-coated hFGF acidic
Procedure: The fixed concentration of hFGFR3b or hFGFR3c proteins was selected to be near the concentration that generated 50% of the maximal binding (EC₅₀ value) to plate-adhered hFGF acidic or hFGF basic protein. […] The plates were then developed using TMB substrate solution (BD Biosciences) according to the manufacturer's recommended procedure and absorbance at 450 nm was measured on a Victor X5 plate reader.
Binding data were analyzed using a sigmoidal (four-parameter logistic) dose-response model using GraphPad Prism software. […] Percent blocking of FGFR3 antibody at a given concentration was calculated based on the formula shown below.
The ability of anti-FGFR3 antibodies to block human FGFR3b binding to hFGF acidic protein or hFGFR3c binding to hFGF acidic or hFGF basic proteins was evaluated using a sandwich ELISA-based blocking assay.

[6] = biological target: T5, human FGFR3c expressed with a C-terminal myc-myc-hexahistidine tag (hFGFR3c.mmH) (human, UniProt P22607 23-375); experiment: SPR Biacore, mAb captured on anti-hFc, 25C; row marked NB
T5 construct: also called REGN3155; monomeric human FGFR3c
Procedure: as §1, §2

[7] = biological target: full length human FGFR3b S249C on BaF3 cells (BAF3/FGFR3b_S249C, ACL11986) (human, UniProt P22607 23-808); experiment: cell-based or functional assay
[8] = biological target: full length human FGFR3b on BaF3 cells (BAF3/FGFR3b, ACL11991) (human, UniProt P22607 23-808); experiment: cell-based or functional assay
[9] = biological target: T5, human FGFR3c expressed with a …; experiment: SPR Biacore, mAb captured on anti-hFc, 25C
Procedure: as §1, §2

| Binder | 90 nM mfFGFR3b.mmH Bind (RU) [1] | Kd [1] | koff [1] | kon [1] | t½ [1] | 90 nM mFGFR3b.mmH Bind (RU) [2] | Kd [2] | koff [2] | kon [2] | t½ [2] | 30 nM hFGFR3b.mFc Bind (RU) [3] | Kd [3] | koff [3] | kon [3] | t½ [3] | 90 nM hFGFR3b.mmH Bind (RU) [4] | koff [4] | kon [4] | t½ [4] | 90 nM hFGFR3c.mmH Bind (RU) [6] | other results |
| --- | --- | --- | --- | --- | --- | --- | --- | --- | --- | --- | --- | --- | --- | --- | --- | --- | --- | --- | --- | --- | --- |
| H4H30071P (antibody, human IgG4 S228P, kappa, V domains shown, HCVR 42, LCVR 50) VH: QVQLQQSGPGLVKPSQTLSLTCAISGDSVSRNSAAWNWIRQSPSSGLEWLGRTYYRSKWFYDYAISVKSRITVNPDTSKNQFSLHLNSVTPEDTAVYYCARGYGGYEDYFDYWGQGTLVTVSS VL: DIQMTQSPSSVSASVGDRVTITCRASQGISSWLAWYQQKPGKAPKLLIYGASSLQSGVPSRFSGSGSGTDFTLTISSLQPEDFATYFCQQGSSFPYTFGQGTKLEIKR | 233 RU | 0.123 nM | 2.22e-05 s⁻¹ | 180000 M⁻¹ s⁻¹ | 520 min | 174 RU | 7.65 nM | 0.00169 s⁻¹ | 220000 M⁻¹ s⁻¹ | 6.9 min | 236 RU | ≤ 0.031 nM | ≤ 1e-05 s⁻¹ | 322000 M⁻¹ s⁻¹ | ≥ 1160 min | 253 RU | 2.96e-05 s⁻¹ | 216000 M⁻¹ s⁻¹ | 390 min | -4.8 RU | Kd [4]: 0.137 nM; % Blocking at 200 nM mAb [5]: 88%; IC50 [5]: 3.6 nM |
| H4H30089P2 (antibody, human IgG4 S228P, kappa, V domains shown, HCVR 62, LCVR 70) VH: EVQLVESGGGLVQPGGSLRLSCIVSGFIFSSYEMSWLRQAPGKGLEWISYISSSGRVIYYADSVKGRFTISRDSAKNSLYLEMNSLRAEDTAIYYCTRKWDSSGPFDFWGQGTLVTVSS VL: not shown | 147 RU | 10.3 nM | 0.00221 s⁻¹ | 216000 M⁻¹ s⁻¹ | 5.2 min | 60 RU | 8.45 nM | 0.00238 s⁻¹ | 281000 M⁻¹ s⁻¹ | 4.9 min | 214 RU | 0.061 nM | 1.9e-05 s⁻¹ | 312000 M⁻¹ s⁻¹ | 608 min | 152 RU | 0.00282 s⁻¹ | 276000 M⁻¹ s⁻¹ | 4.1 min | -6.7 RU | Kd [4]: 10.2 nM; % Blocking at 200 nM mAb [5]: 68%; IC50 [5]: 15 nM |
| H4H30102P2 (antibody, human IgG4 S228P, kappa, V domains shown) VH: EVQLVESGGDLVQPGGSLRLSCAASGFTFSSYEMNWVRQAPGKGLEWVSYISNSGSTIYYADSVKGRFTISRDNAETSLYLQMNSLRAEDTAVYYCAREGWGAYCAGDCYSGFDIWGQGTMVTVSS VL: not shown | 126 RU | 1.75 nM | 0.00023 s⁻¹ | 131000 M⁻¹ s⁻¹ | 50.2 min | – | – | – | – | – | – | – | – | – | – | – | – | – | – | – | Max Blocking (%), BaF3 proliferation (CellTiter-Glo) with 1 nM FGF1 + 5 ug/ml heparin [7]: 34.5%; IC50 [M], BaF3 proliferation (CellTiter-Glo) with 1 nM FGF1 + 5 ug/ml heparin [8]: 1.86e-08 M; Max Blocking (%), BaF3 proliferation (CellTiter-Glo) with 1 nM FGF1 + 5 ug/ml heparin [8]: 41.1% |
| H4H30066P (antibody, human IgG4 S228P, kappa, V domains shown, HCVR 22, LCVR 30) VH: QVQLVQSGAEVKKPGASVKVSCKVSGYTLTELSMHWVRQAPGKGLEWMGGFDPEDGEIIYAQKFQGRVTMTEDTSTDTAYMDLSSLTSEDTAVYYCATEKQQLVRKYYFYYGLAVWGQGTTVTVSS VL: not shown | 203 RU | 1.99 nM | 0.000779 s⁻¹ | 391000 M⁻¹ s⁻¹ | 14.8 min | 64.6 RU | 16.9 nM | 0.00487 s⁻¹ | 288000 M⁻¹ s⁻¹ | 2.4 min | 282 RU | ≤ 0.0158 nM | ≤ 1e-05 s⁻¹ | 632000 M⁻¹ s⁻¹ | ≥ 1160 min | 224 RU | 0.000635 s⁻¹ | 496000 M⁻¹ s⁻¹ | 18.2 min | 0.5 RU | Kd [4]: 1.28 nM; binding result [9]: no binding (tested: 90 nM); % Blocking at 200 nM mAb [5]: 90%; IC50 [5]: 3.2 nM |
| H4H30108P2 (antibody, human IgG4 S228P, kappa, V domains shown) VH: QVQLVQSGAEVKKPGASVKVSCKASGYTFNSYDVNWVRQATGQGLEWMGWMNPHSGNTGYAQKFQGRVTMTRDTSTSTSYMELSSLTSEDTAVYYCARGPFSLLSAEFFQHWGQGTLVTVSS VL: not shown | 212 RU | 0.909 nM | 0.000136 s⁻¹ | 149000 M⁻¹ s⁻¹ | 85.2 min | 121 RU | – | 0.00199 s⁻¹ | 162000 M⁻¹ s⁻¹ | 5.8 min | 213 RU | – | ≤ 1e-05 s⁻¹ | 311000 M⁻¹ s⁻¹ | ≥ 1160 min | 227 RU | 0.000159 s⁻¹ | 176000 M⁻¹ s⁻¹ | 72.6 min | -2.5 RU | – |
